Measured values reported in patent publication US20240287172A1 (SCIRHOM, published 2024).
Residue numbers refer to the chain shown, from its start.

T1: hiR2-FL-L539A-T7 (human, UniProt Q6PJF5 1-856)
T1 construct: on MEF-DKO cells
T1 sequence: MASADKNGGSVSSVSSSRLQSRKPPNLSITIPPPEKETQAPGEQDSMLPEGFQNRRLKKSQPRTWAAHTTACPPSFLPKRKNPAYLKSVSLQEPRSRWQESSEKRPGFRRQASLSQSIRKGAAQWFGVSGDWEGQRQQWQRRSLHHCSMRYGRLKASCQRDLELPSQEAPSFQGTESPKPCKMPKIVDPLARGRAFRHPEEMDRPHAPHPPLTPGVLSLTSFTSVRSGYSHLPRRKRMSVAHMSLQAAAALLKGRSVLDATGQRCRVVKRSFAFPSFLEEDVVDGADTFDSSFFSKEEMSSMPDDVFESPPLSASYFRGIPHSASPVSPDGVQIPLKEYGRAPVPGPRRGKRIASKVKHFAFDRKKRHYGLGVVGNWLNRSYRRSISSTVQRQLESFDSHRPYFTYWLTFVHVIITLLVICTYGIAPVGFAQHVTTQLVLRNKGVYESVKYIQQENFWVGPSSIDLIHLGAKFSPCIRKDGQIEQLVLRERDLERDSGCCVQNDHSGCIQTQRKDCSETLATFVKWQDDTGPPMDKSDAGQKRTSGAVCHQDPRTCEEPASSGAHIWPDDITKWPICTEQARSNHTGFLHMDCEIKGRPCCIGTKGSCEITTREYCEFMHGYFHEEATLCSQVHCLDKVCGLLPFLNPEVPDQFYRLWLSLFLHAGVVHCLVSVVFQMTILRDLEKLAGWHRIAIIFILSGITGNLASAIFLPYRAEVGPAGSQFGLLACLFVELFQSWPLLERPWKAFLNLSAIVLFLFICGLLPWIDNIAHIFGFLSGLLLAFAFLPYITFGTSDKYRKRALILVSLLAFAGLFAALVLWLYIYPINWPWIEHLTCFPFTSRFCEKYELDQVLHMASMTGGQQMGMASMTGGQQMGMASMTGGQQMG

B1: antibody 5 (antibody, V domains shown)
VH: QVTLKESGPGILQPSQTLSLTCSFSGFSLSTFGMGVGWIRQPSGKGLEWLAHIWWDDEKYYNSALKSRLTISKATSKNQAFLKIANVDTADTATYYCARISNYGSNYWYFNVWGTGTTVTVSS
VL: QVVLTQSPALMSASPGEKVTMTCSAGSSVSCMYWYQQKPGSSPRVLIYDTSNLASGVPARFTGSGSGTSYSLTISRMEAEDAASYYCQQWNSYPLTFGAGTKLELK
notes: mouse IgG, kappa light chain; also called clone #5; purified antibody 5
B2: antibody 42 (antibody, V domains shown)
VH: B1 VH with F24L, M34R, S63P, A74D, A80V, K83R, S101Q, N111D
VL: LIVLTQSPAIMSASPGEKVTMTCGATSRISYMFWYQQKPGSSPRVLIYDTSNLASGVPVRFSGSGSGTSYSLTISRVEAEDVATYYCQQWNSYPLTFGAGTKLELK
notes: mouse IgG, kappa light chain; also called clone #42; purified antibody 42
B3: antibody 44 (antibody, V domains shown)
VH: B1 VH with G44E, E58D, S63P, A74D, A80I, A85T, D91E, A98S, S101G, N111D
VL: QIVLTQSPAVMSASPGEKVTMTCTASSSVYYMYWYQQTPGSSPRLLIYDTSNLASGVPVRFSGSGSGTSYSLTISRMEAEDAATYYCQQWNTYPLTFGAGTKLELK
notes: mouse IgG, kappa light chain; also called clone #44; purified antibody 44
B4: antibody 43 (antibody, V domains shown)
VH: B1 VH with T3A, P42S, H52N, E58D, S63P, A74D, T75A, S101G, N111D
VL: B2 VL with L1Q, K18R, G24S, T26N, F33Y, V45L, V77M, V82A, Y86N, N91S
notes: mouse IgG, kappa light chain; also called clone #43; purified antibody 43
B5: antibody 22 (antibody, V domains shown)
VH: B1 VH with A80V
VL: B1 VL with C31Y, S84T
notes: mouse IgG, kappa light chain; also called clone #22; purified antibody 22
B6: antibody 16 (antibody, V domains shown)
VH: QVTLKESGPGILQPSQTLSLTCSFSGFSLSTFALGVGWIRQPSGRGLEWLAHIWWDDDKYYNPALKSRLTISKDTSKNHVFLKIANVDTADTATYYCARITTYYYGMDYWGQGTSVTVSS
VL: DIVLSQSPATLSVTPGDSVSLFCRASQSIGNHLHWYQQESHASPRLLIKYASQSISGIPSRFSGSGSGTDFTLSINSVETEDFGMYFCQQSYNWPLTFGAGTKLELK
notes: mouse IgG, kappa light chain; also called clone #16; purified antibody 16
B7: antibody 3 (antibody, V domains shown)
VH: QVTLKESGPGILQPSQTLSLTCSFSGFSLTTFAMGIGWVRQPSGKGLEWLAHIWWDGEKYNNPVLKSRLTISKDTSKNQVFLRIANVDTPDTATYYCARISSIYYIIDNWGQGTSVTVSS
VL: B6 VL with S5T, D17H, F22S, G30S, H32N, Q38K, E39K, A42E, A51V
notes: mouse IgG, kappa light chain; also called clone #3; purified antibody 3
B8: antibody 48 (antibody, V domains shown)
VH: QVQLQQSGTELVRPGTSVKVSCKASGYAFTNYLIEWVKQRPGQGLEWIGVINPGSGFTKYNEKFKGKATLTADKSSSTVYMHLSSLTSEDSAVYFCARGLYRAMDYWGQGTSVTVSS
VL: DIQMTQSPASQSASLGESVTITCLASQTIATWLAWYQQKPGKSPQLLIYGATTLADGVPSRFSGGGSGTKFSFKISSLQAEDFVSYYCQQLYSTPYTFGGGTKLEIK
notes: mouse IgG, kappa light chain; also called clone #48; purified antibody 48
B9: antibody 34 (antibody, V domains shown)
VH: QVTLKESGPGILQPSQTLSLTCSFSGFSLSTFSLGVGWIRQSSGKGLEWLAHIWWDDEKYYNPALKSRLTISKDTSKNQVFLKIANVDAADTATYYCARAYYSKSYYALDYWGQGTSVTVSS
VL: DIQMTQSPSSLSASLGERVSLTCRASQEISGYLSWLQQKPDGTIKRLIYAASTLDSGVPKRFSGSRSGSDYSLAISSLESEDFADYYCLQYANFPFTFGSGTKLEIK
notes: mouse IgG, kappa light chain; also called clone #34; purified antibody 34

What follows are binders tested against T1, hiR2-FL-L539A-T7 (assay: FACS, MEF-DKO cells, 3 µg/ml).
From the text: In brief, immortalized MEF-DKO-hiR2-FL-G498A-T7, MEF-DKO-hiR2-FL-Q502R-T7, MEF-DKO-hiR2-FL-I509V-T7, MEF-DKO-hiR2-FL-Q512S-T7, MEF-DKO-hiR2-FL-R513E-T7, MEF-DKO-hiR2-FL-K514E-T7, MEF-DKO-hiR2-FL-D515E-T7, MEF-DKO-hiR2-FL-E518S-T7, MEF-DKO-hiR2-FL-T522V-T7, MEF-DKO-hiR2-FL-F523W-T7, MEF-DKO-hiR2-FL-Q527P-T7, MEF-DKO-hiR2-FL-D528I-T7, MEF-DKO-hiR2-FL-D529H-T7, MEF-DKO-hiR2-FL-T530P-T7, MEF-DKO-hiR2-FL-G531S-T7, MEF-DKO-hiR2-FL-P532A-T7, MEF-DKO-hiR2-FL-M534-T7, MEF-DKO-hiR2-FL-D535-T7, MEF-DKO-hiR2-FL-K536-T7, MEF-DKO-hiR2-FL-S537E-T7, MEF-DKO-hiR2-FL-D538L-T7, MEF-DKO-hiR2-FL-L539A-T7, MEF-DKO-hiR2-FL-Q541H-T7, MEF-DKO-hiR2-FL-T544Q-T7, MEF-DKO-hiR2-FL-S545F-T7, MEF-DKO-hiR2-FL-A547S-T7, MEF-DKO-hiR2-FL-T555V-T7, MEF-DKO-hiR2-FL-E557D-T7, MEF-DKO-hiR2-FL-A560S-T7 and MEF-DKO-hiR2-FL-S562E-T7 cells were harvested with 10 mM EDTA in PBS, washed and resuspended in FACS buffer (PBS, 3% FBS, 0.05% sodium azide), and seeded in Nunc U-bottom 96-well plates (Thermo Fisher Scientific, USA) at approximately 3×10⁵ cells per well. To pellet cells and remove supernatants, the plates were centrifuged at 1,500 rpm and 4° C. for 3 minutes. For primary staining, cells were resuspended in 100 μl per well of either FACS buffer alone (controls) or the purified antibodies 3, 5, 16, 22, 34, 42, 43, 44, 48, and 50 of the invention at 3 μg/ml in FACS buffer and incubated on ice for 1 hour. Afterwards, plates were centrifuged at 1,500 rpm and 4° C. for 3 minutes and washed twice with 200 μl per well of FACS buffer. For secondary staining, cells were spun down and resuspended in 100 μl per well of PE-conjugated goat anti-mouse IgG F(ab′)2 detection fragment (Dianova, Germany) diluted 1:100 in FACS buffer. Protected from light, the cell suspensions were incubated on ice for 1 hour. Plates were then centrifuged at 1,500 rpm and 4° C. for 3 minutes and washed three times with 200 μl per well of FACS buffer. Finally, cells were resuspended in 150 μl per well of FACS buffer and analyzed using a BD Accuri™ C6 Plus flow cytometer (Becton Dickinson, Germany).

Row | Binder | loss of binding vs wild type
1 | B1 | ≥ 95%
2 | B2 | ≥ 95%
3 | B3 | ≥ 95%
4 | B4 | ≥ 95%
5 | B5 | ≥ 95%
6 | B6 | ≥ 30%
7 | B7 | ≥ 95%
8 | B8 | ≥ 30%
9 | B9 | ≥ 95%
